US20200325220A1 (published 2020)

B1: C6b (antibody)
heavy: not shown
light: EIVLTQSPGTLSLSPGETAILSCRASQSVSSSLLAWYQQKPGQAPRLLIYGASNRATGIRGRFSGSGSGTDFTLTISRLEPEDFVLYYCQHYGSRVTFGQGTKLEIKRTVAAPSVFIFPPSDEQLKSGTASVVCLLNNFYPREAKVQWKVDNALQSGNSQESVTEQDSKDSTYSLSSTLTLSKADYEKHKVYACEVTHQGLSSPVTKSFNRGEC
B2: C5b (antibody)
heavy: not shown
light: B1 light
B3: C6 (antibody)
heavy: not shown
light: B1 light
B4: C5 (antibody)
heavy: not shown
light: B1 light
B5: C9 (antibody, V domains shown)
VH: DVQLVESGGGVVRPGVSLRLSCVASGFSFKNYDMAWVRQVPGKGLEWVCGINWNGSLRGYADSVKGRFLISRDHAKDSLYLQMSRLRAEDTALYYCARDPGYNTGRDHPYDLWGQGTMVTVSS
VL: DIQMTQSPSTLSASVGDRVTITCRASQSISSWLAWYQQKPGKAPKLLIYKASSLGSGVPSRFSGSGSGTQFTLTISSLQPDDFATYYCQQYNNYPYTFGQGTKLEIKR
B6: GCE536 (antibody)
heavy: not shown
light: B1 light

Target: αPD-1
Assay: ELISA

Q: With B1 as the binder, how does the EC50 read?
A: ~1350 µg/mL

Q: B2 was tested. Which EC50 did it give?
A: 0.0371 µg/mL

Q: How did the EC50 turn out when B3 was run?
A: ~743 µg/mL

Q: Which EC50 does the source give for B4 here?
A: 0.0585 µg/mL

Target: αSLAM
Assay: ELISA

Q: Which EC50 does the source give for B1 here?
A: 0.0885 µg/mL

Q: For B2, which EC50 is on record?
A: ~397 µg/mL

Q: B3 was tested. Which EC50 did it give?
A: 0.0958 µg/mL

Q: For B4, which EC50 is on record?
A: ~632 µg/mL

Target: Strep-tactin
Assay: ELISA

Q: How did the EC50 turn out when B5 was run?
A: 0.187 µg/mL

Target: recombinant human GM-CSF (human, UniProt P04141 18-144)
Sequence (P04141 18-144): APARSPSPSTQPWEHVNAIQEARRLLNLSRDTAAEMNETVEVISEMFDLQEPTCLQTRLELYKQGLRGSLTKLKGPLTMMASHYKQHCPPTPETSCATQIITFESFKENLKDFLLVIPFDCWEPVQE
Assay: ELISA

Q: How did the EC50 turn out when B1 was run?
A: 0.0324 µg/mL

Q: With B2 as the binder, how does the EC50 read?
A: 0.0355 µg/mL

Q: B6 was tested. Which EC50 did it give?
A: 0.0492 µg/mL

Q: B4 was tested. Which EC50 did it give?
A: 0.0515 µg/mL
